From article PMC3044595 come the findings set out here.

The experiment concerns the target BclA N-terminal 35 amino acids fused to eGFP (Bacillus anthracis) (UniProt Q81JD7). Put plainly: FRET or BRET. (Bioluminescence resonance energy transfer reports proximity on the nanometre scale.)

“BxpB-mCherry fusion (from UniProt S5W424 1-167) (natural protein)”: the fold decrease of the eGFP signal (FRET), against BclA NTD-eGFP alone came out at 2.1 fold and the percent of FRET positive spores was 14.8%.
